# Reference: the supplement of paper PMC9112550, “Optimization of the antimicrobial peptide Bac7 by deep mutational scanning” (BMC Biology, 2022)
# System: Escherichia coli TOP10
# Assay: shrunken log2 fold change of peptide-encoding DNA abundance (4.5 h post-induction vs induction); higher = less antimicrobial activity (less host growth inhibition)
# Details: time post-induction: 4.5 h; library: site-saturation at positions 5, 18, 19, 20
# 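Note: peptides expressed intracellularly from a pBAD plasmid library in pooled LB shake-flask culture, induced with 0.3% L-arabinose, DNA abundance read by NGS, three biological replicates, DESeq2 with apeglm shrinkage.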
row,Sequence,shrunken log2 fold change
1,RRIRTRPPRLPRPRPRPGPCPRP,0.219
2,RRIRTRPPRLPRPRPRPHKMPRP,-0.0381
3,RRIRTRPPRLPRPRPRPEVFPRP,0.146
4,RRIRARPPRLPRPRPRPPKGPRP,0.654
5,RRIRIRPPRLPRPRPRPQQNPRP,-0.318
6,RRIRGRPPRLPRPRPRPMQLPRP,0.539
7,RRIRSRPPRLPRPRPRPMFPPRP,-0.22
8,RRIRQRPPRLPRPRPRPMWWPRP,0.128
9,RRIRMRPPRLPRPRPRPVYYPRP,-0.123
10,RRIRKRPPRLPRPRPRPICMPRP,0.0199
11,RRIRWRPPRLPRPRPRPWGFPRP,0.27
12,RRIRVRPPRLPRPRPRPELCPRP,0.0749
13,RRIRKRPPRLPRPRPRPFPHPRP,-0.04
14,RRIRARPPRLPRPRPRPHKTPRP,0.0429
15,RRIRFRPPRLPRPRPRPLAPPRP,0.193
16,RRIRWRPPRLPRPRPRPITKPRP,0.258
17,RRIRERPPRLPRPRPRPDQQPRP,-0.278
18,RRIRHRPPRLPRPRPRPCMKPRP,0.0319
19,RRIRIRPPRLPRPRPRPVVTPRP,-0.408
20,RRIRRRPPRLPRPRPRPQYMPRP,-0.234
21,RRIRARPPRLPRPRPRPSFMPRP,0.0496
22,RRIRWRPPRLPRPRPRPFNEPRP,-0.69
23,RRIRFRPPRLPRPRPRPVTGPRP,0.0131
24,RRIRHRPPRLPRPRPRPSAFPRP,-0.435
25,RRIRLRPPRLPRPRPRPGLGPRP,0.342

row,Sequence,shrunken log2 fold change
1,RRIRSRPPRLPRPRPRPEQAPRP,0.289
2,RRIRCRPPRLPRPRPRPVVMPRP,-0.138
3,RRIRDRPPRLPRPRPRPPSPPRP,0.494
4,RRIRHRPPRLPRPRPRPDWWPRP,0.0937
5,RRIRYRPPRLPRPRPRPPKYPRP,-0.97
6,RRIRGRPPRLPRPRPRPCIDPRP,0.877
7,RRIRKRPPRLPRPRPRPGIHPRP,0.149
8,RRIRKRPPRLPRPRPRPSCQPRP,0.176
9,RRIRCRPPRLPRPRPRPENTPRP,-0.297
10,RRIRWRPPRLPRPRPRPTDIPRP,-0.151
11,RRIRHRPPRLPRPRPRPSTTPRP,-0.416
12,RRIRMRPPRLPRPRPRPHTIPRP,0.0593
13,RRIRGRPPRLPRPRPRPYHHPRP,-0.176
14,RRIRTRPPRLPRPRPRPANCPRP,-0.0321
15,RRIRYRPPRLPRPRPRPISEPRP,-0.0398
16,RRIRWRPPRLPRPRPRPACTPRP,0.334
17,RRIRVRPPRLPRPRPRPHTGPRP,-0.495
18,RRIRQRPPRLPRPRPRPPRFPRP,1.51
19,RRIRHRPPRLPRPRPRPQTAPRP,0.00296
20,RRIRNRPPRLPRPRPRPFFNPRP,-0.725
21,RRIRVRPPRLPRPRPRPRPGPRP,0.627
22,RRIRYRPPRLPRPRPRPVSRPRP,-0.0816
23,RRIRGRPPRLPRPRPRPHKNPRP,0.535
24,RRIRCRPPRLPRPRPRPATFPRP,-0.331
25,RRIRTRPPRLPRPRPRPKGWPRP,0.414

row,Sequence,shrunken log2 fold change
1,RRIRKRPPRLPRPRPRPFFSPRP,-0.0214
2,RRIRARPPRLPRPRPRPNCMPRP,-0.421
3,RRIRQRPPRLPRPRPRPKAYPRP,0.0697
4,RRIRKRPPRLPRPRPRPHASPRP,0.073
5,RRIRDRPPRLPRPRPRPMLTPRP,0.155
6,RRIRFRPPRLPRPRPRPYPCPRP,-0.0436
7,RRIRQRPPRLPRPRPRPIMMPRP,-0.0173
8,RRIRKRPPRLPRPRPRPTPSPRP,0.921
9,RRIRERPPRLPRPRPRPQPQPRP,-0.0713
10,RRIRPRPPRLPRPRPRPYVFPRP,-0.659
11,RRIRGRPPRLPRPRPRPMANPRP,0.057
12,RRIRSRPPRLPRPRPRPDLDPRP,0.152
13,RRIRCRPPRLPRPRPRPQQQPRP,0.339
14,RRIRLRPPRLPRPRPRPTKPPRP,0.0884
15,RRIRMRPPRLPRPRPRPRNCPRP,0.0629
16,RRIRLRPPRLPRPRPRPTTQPRP,0.216
17,RRIRQRPPRLPRPRPRPGPFPRP,0.0672
18,RRIRQRPPRLPRPRPRPHQFPRP,0.0486
19,RRIRARPPRLPRPRPRPCLFPRP,-0.131
20,RRIRSRPPRLPRPRPRPLKPPRP,0.0304
21,RRIRERPPRLPRPRPRPLSCPRP,0.075
22,RRIRTRPPRLPRPRPRPRHAPRP,0.329
23,RRIRNRPPRLPRPRPRPEWTPRP,-0.0178
24,RRIRTRPPRLPRPRPRPYPLPRP,0.0692
25,RRIRQRPPRLPRPRPRPAQVPRP,0.0263

row,Sequence,shrunken log2 fold change
1,RRIRMRPPRLPRPRPRPCMAPRP,0.59
2,RRIRTRPPRLPRPRPRPYYYPRP,-1.2
3,RRIRARPPRLPRPRPRPQDTPRP,-0.179
4,RRIRFRPPRLPRPRPRPENEPRP,0.15
5,RRIRCRPPRLPRPRPRPSALPRP,-0.0403
6,RRIRRRPPRLPRPRPRPIASPRP,0.432
7,RRIRIRPPRLPRPRPRPVVLPRP,-0.21
8,RRIRGRPPRLPRPRPRPIMRPRP,0.818
9,RRIRFRPPRLPRPRPRPCFNPRP,-0.385
10,RRIRMRPPRLPRPRPRPKHQPRP,0.634
11,RRIRLRPPRLPRPRPRPWRDPRP,-0.252
12,RRIRHRPPRLPRPRPRPYSQPRP,-0.177
13,RRIRCRPPRLPRPRPRPPLNPRP,0.212
14,RRIRSRPPRLPRPRPRPVDTPRP,-0.103
15,RRIRPRPPRLPRPRPRPISMPRP,-0.0272
16,RRIRMRPPRLPRPRPRPYPPPRP,0.133
17,RRIRSRPPRLPRPRPRPVYGPRP,-0.355
18,RRIRMRPPRLPRPRPRPNRTPRP,0.13
19,RRIRTRPPRLPRPRPRPPGPPRP,0.53
20,RRIRVRPPRLPRPRPRPGEHPRP,-0.035
21,RRIRRRPPRLPRPRPRPGCTPRP,0.183
22,RRIRKRPPRLPRPRPRPWAFPRP,-0.016
23,RRIRKRPPRLPRPRPRPYDPPRP,0.0113
24,RRIRRRPPRLPRPRPRPKIRPRP,0.0898
25,RRIRARPPRLPRPRPRPFELPRP,-0.146

row,Sequence,shrunken log2 fold change
1,RRIRVRPPRLPRPRPRPHFSPRP,-0.0373
2,RRIRVRPPRLPRPRPRPGSKPRP,0.0731
3,RRIRVRPPRLPRPRPRPRVWPRP,0.736
4,RRIRGRPPRLPRPRPRPGGVPRP,1.06
5,RRIRTRPPRLPRPRPRPLLRPRP,0.0975
6,RRIRLRPPRLPRPRPRPNSVPRP,-0.11
7,RRIRHRPPRLPRPRPRPMCFPRP,-0.574
8,RRIRRRPPRLPRPRPRPFTQPRP,-0.223
9,RRIRERPPRLPRPRPRPCVIPRP,-0.0272
10,RRIRRRPPRLPRPRPRPVQAPRP,0.464
11,RRIRARPPRLPRPRPRPKAVPRP,0.706
12,RRIRWRPPRLPRPRPRPTEKPRP,0.103
13,RRIRMRPPRLPRPRPRPIEEPRP,0.278
14,RRIRIRPPRLPRPRPRPVDCPRP,0.0257
15,RRIRKRPPRLPRPRPRPVTVPRP,-0.0834
16,RRIRWRPPRLPRPRPRPPYCPRP,-0.0779
17,RRIRPRPPRLPRPRPRPMTMPRP,-0.469
18,RRIRKRPPRLPRPRPRPSKEPRP,0.0111
19,RRIRWRPPRLPRPRPRPGNRPRP,-0.00977
20,RRIRVRPPRLPRPRPRPIAIPRP,-0.0841
21,RRIRIRPPRLPRPRPRPSRLPRP,-0.0995
22,RRIRIRPPRLPRPRPRPYFAPRP,-0.694
23,RRIRRRPPRLPRPRPRPWIMPRP,0.0607
24,RRIRERPPRLPRPRPRPQPHPRP,-0.261
25,RRIRMRPPRLPRPRPRPTNYPRP,-0.212

row,Sequence,shrunken log2 fold change
1,RRIRKRPPRLPRPRPRPSYYPRP,-0.983
2,RRIRDRPPRLPRPRPRPRLHPRP,0.11
3,RRIRGRPPRLPRPRPRPNARPRP,0.501
4,RRIRKRPPRLPRPRPRPMYKPRP,-0.0655
5,RRIRKRPPRLPRPRPRPPHDPRP,0.559
6,RRIRFRPPRLPRPRPRPAATPRP,0.372
7,RRIRRRPPRLPRPRPRPMKRPRP,0.0474
8,RRIRRRPPRLPRPRPRPCSIPRP,-0.0224
9,RRIRSRPPRLPRPRPRPETEPRP,0.997
10,RRIRGRPPRLPRPRPRPFREPRP,-0.21
11,RRIRCRPPRLPRPRPRPCSPPRP,-0.241
12,RRIRDRPPRLPRPRPRPRAYPRP,-0.212
13,RRIRLRPPRLPRPRPRPMSHPRP,0.0207
14,RRIRGRPPRLPRPRPRPLGYPRP,0.885
15,RRIRTRPPRLPRPRPRPVFYPRP,-0.25
16,RRIRLRPPRLPRPRPRPHCLPRP,-0.0829
17,RRIRMRPPRLPRPRPRPCIGPRP,0.0503
18,RRIRTRPPRLPRPRPRPLTDPRP,-0.198
19,RRIRCRPPRLPRPRPRPGWRPRP,0.331
20,RRIRHRPPRLPRPRPRPQCVPRP,0.00938
21,RRIRWRPPRLPRPRPRPIHQPRP,0.0226
22,RRIRVRPPRLPRPRPRPEQNPRP,0.316
23,RRIRFRPPRLPRPRPRPFHSPRP,-0.0346
24,RRIRWRPPRLPRPRPRPYSYPRP,-0.00188
25,RRIRARPPRLPRPRPRPPYLPRP,-0.188
